For this experiment, the target named is KSHV gB653-mut ectodomain (Kaposi's sarcoma-associated herpesvirus (KSHV), strain GK18) (UniProt F5HB81). In words: cryo-EM structure.

The stoichiometry N is a count of units in the complex or per binding partner. Take “KSHV gB653-mut ectodomain (from UniProt F5HB81 27-653) (domain or fragment)”: the stoichiometry N came to 3.
